The values below come from article doi:10.1101/2025.09.11.675682, “Weak SLP-76-PLC-γ1 interaction in the LAT-nucleated multi-protein complex fine-tunes TCR signal strength to optimize T cell responsiveness” (bioRxiv, 2025).

Test [1] deals with T1, PLC-γ1 (Phospholipase C-γ1), 1–1219 (UniProt P19174 1-1219).
T1 construct: the text calls it full length PLC-γ1; also called full length PLC-γ1
T1 sequence (looked up): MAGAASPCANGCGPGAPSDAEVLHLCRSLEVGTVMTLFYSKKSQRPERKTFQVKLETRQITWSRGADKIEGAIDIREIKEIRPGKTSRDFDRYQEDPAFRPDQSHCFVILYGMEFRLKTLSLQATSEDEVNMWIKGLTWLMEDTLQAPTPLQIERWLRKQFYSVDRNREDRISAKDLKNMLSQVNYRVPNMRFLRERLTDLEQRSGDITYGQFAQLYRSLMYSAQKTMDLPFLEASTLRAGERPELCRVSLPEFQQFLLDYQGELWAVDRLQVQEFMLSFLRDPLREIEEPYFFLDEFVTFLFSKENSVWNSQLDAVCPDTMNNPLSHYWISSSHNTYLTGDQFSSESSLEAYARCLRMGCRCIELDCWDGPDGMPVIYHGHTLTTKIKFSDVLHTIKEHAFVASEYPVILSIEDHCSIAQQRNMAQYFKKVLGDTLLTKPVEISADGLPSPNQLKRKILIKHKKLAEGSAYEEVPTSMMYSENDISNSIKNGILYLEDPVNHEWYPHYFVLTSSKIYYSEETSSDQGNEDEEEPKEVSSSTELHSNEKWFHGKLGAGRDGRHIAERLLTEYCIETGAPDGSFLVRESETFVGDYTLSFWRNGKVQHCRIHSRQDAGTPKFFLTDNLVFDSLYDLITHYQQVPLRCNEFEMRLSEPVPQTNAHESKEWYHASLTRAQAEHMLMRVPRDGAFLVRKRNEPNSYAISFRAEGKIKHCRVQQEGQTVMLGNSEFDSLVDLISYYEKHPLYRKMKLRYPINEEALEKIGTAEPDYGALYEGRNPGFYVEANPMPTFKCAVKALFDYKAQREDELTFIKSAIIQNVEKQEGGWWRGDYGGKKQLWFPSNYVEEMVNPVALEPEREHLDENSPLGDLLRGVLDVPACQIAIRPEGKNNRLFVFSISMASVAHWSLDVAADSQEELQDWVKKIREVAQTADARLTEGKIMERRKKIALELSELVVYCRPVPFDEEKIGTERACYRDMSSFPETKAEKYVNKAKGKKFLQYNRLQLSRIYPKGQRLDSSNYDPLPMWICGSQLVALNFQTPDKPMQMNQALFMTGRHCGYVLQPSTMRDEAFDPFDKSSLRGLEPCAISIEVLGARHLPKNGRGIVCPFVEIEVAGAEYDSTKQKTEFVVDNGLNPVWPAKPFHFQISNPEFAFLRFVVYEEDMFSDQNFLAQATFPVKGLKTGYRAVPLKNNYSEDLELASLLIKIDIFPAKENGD
Kind of test: ITC; VP-ITC; 5°C; 20 mM Hepes (pH 7.4), 100 mM NaCl, 0.1 mM DTT; 4 μM in the cell, 40 μM in the syringe; single binding site fit with 1:1 stoichiometry; 3 independent experiments. The conditions noted are these: both partners purified.

In test [2] the target is T1, PLC-γ1 (Phospholipase C-γ1), 1–1219. Briefly: cell-based or functional assay.

B1: SLP-76 PRR peptide (aa 185–200), wild type (peptide, UniProt Q13094 185-200, looked up)
peptide: QPPVPPQRPMAALPPP
notes: SLP-76 proline-rich region, residues 185–200; also called SLP-76 185–200 (WT); SLP-76 PRR_(185–200) peptide
Turning to B1, in test [1], binding was put at a Kd of 3.99 µM and the dH was -3.3 kcal/mol.

B2: SLP-76^WT polypeptide (aa 103–258, Y113F, Y173F) (domain or fragment, UniProt Q13094 103-258, looked up)
chain: GGWSSFEEDDFESPNDDQDGEDDGDYESPNEEEEAPVEDDADYEPPPSNDEEALQNSILPAKPFPNSNSMFIDRPPSGKTPQQPPVPPQRPMAALPPPPAGRNHSPLPPPQTNHEEPSRSRNHKTAKLPAPSIDRSTKPPLDRSLAPFDREPFTLG
notes: wild-type proline-rich region; not shown: His6, N-terminal, cleaved; GST, N-terminal, cleaved
In test [1], B2 came in with a Kd of 2.32 µM and a dH of -3.8 kcal/mol. For the same molecule, the “PLC-γ1 activity (IP3 from PIP2-bearing liposomes): LAT-Gads-SLP-76^WT-PLC-γ1 tetramer against PLC-γ1 with phospho-LAT alone” value in test [2] stood at 1.7 fold.
